Test results: patent US6746858B1, “Murd protein and gene of Streptococcus pyogenes” (Merck & Co. Inc., priority 1997, dated 2004)

B1: S. pyogenes: recombinant Streptococcus pyogenes MurD protein (SEQ ID NO:2), His-tag removed, partially purified (protein)
chain: MKVISNFQNKKILILGLAKSGEAAAKLLTKLGALVTVNDSKPFDQNPAAQALLEEGIKVICGSHPVELLDEDFEYMVKNPGIPYDNPMVKRALAKEIPILTEVELAYFVSEAPIIGITGSNGKTTTTTMIADVLNAGGQSALLSGNIGYPASKVVQKAIAGDTLVMELSSFQLVGVNAFRPHIAVITNLMPTHLDYHGSFEDYVAAKWMIQAQMTESDYLILNANQEISATLAKTTQATVIPFSTQKVVDGAYLKDGILYFKEQAIIAATDLGVPGSHNIENALATIAVAKLSGIADDIIAQCLSHFGGVKHRLQRVGQIKDITFYNDSKSTNILATQKALSGFDNSRLILIAGGLDRGNEFDDLVPDLLGLKQMIILGESAERMKRAANKAEVSYLEARNVAEATELAFKLAQTGDTILLSPANASWDMYPNFEVRGDEFLATFDCLRGDA
modifications: His-tag removed; Streptococcus pyogenes MurD

How the values were obtained:
E. coli MurD = E. coli MurD (Escherichia coli, UniProt P14900); settings: 350 μM UDP-N-acetyl-muramyl-L-alanine
Sequence of E. coli MurD (P14900 whole entry): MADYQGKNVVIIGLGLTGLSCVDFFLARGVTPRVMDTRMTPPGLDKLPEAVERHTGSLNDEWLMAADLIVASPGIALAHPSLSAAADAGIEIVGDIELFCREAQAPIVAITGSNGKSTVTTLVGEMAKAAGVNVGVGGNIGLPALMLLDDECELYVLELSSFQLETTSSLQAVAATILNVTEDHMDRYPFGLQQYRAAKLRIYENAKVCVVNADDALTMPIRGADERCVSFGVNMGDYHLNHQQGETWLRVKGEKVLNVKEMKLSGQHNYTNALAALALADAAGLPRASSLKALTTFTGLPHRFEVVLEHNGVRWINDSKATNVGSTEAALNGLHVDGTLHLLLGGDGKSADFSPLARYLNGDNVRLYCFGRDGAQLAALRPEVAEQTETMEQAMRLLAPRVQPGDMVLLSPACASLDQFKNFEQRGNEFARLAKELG
Protocol: The ATP-dependent MurD activity was assayed by monitoring the formation of product ADP using the pyruvate kinase and lactate dehydrogenase coupled enzyme assay. The reaction was monitored spectrophotometrically.
Typically, the assay contained 100 mM BIS-TRIS-propane, pH 8.0, 200 μM NADH, 1 mM ATP, 20 mM PEP, 5 mM MgCl2, 1 mM DTT, 350 μM UDP-N-acetyl-muramyl-L-alanine, 1 mM D-glutamate, 33 units/ml of pyruvate kinase and 1660 units/ml of lactate dehydrogenase in a final volume of 200 or 400 μL. The mixture was incubated at 25° C. for 5 min and the reaction initiated by the addition of 1-10 μg of MurD. ADP formation was monitored by the decrease in absorbance at 340 nm as a function of time using a Molecular Devices SpectramaxPlus microtiterplate spectrophotomer (for 200 μl assays) or a Hewlett-Packard HP8452A spectrophotometer equipped with a circulating water bath (for 400 μl assays). Rates were calculated from the linear portions of the progress curves using the extinction coefficient for NADH, e=6220 cm^−1 M^−1. One unit of MurD activity is equal to 1 μmol of ADP formed per min at 25° C.
Assays have been conducted using 120 and 350 μM UDP-N-acetyl-muramyl-L-alanine.

S. pyogenes MurD = test: ATP-dependent MurD activity, pyruvate kinase/lactate dehydrogenase coupled enzyme assay (ADP formation); type: biochemical, Streptococcus pyogenes; settings: partially purified, UDP-N-acetylmuramyl-L-ala 350 μM, D-glutamate 1 mM, ATP 1 mM, 200 μl, 25° C.
Protocol: The cell pellet from 100 ml of induced culture prepared as described above was resuspended in 10 ml BT buffer (50 mM bis-tris-propane, pH 8.0, containing 100 mM potassium chloride and 1% glycerol) at 4° C. Cells were lysed either by freeze-thaw or by French Press. After centrifugation, the supernatant was mixed with 15 ml of freshly prepared Talon resin and incubated for 30 min at room temp. The resin was washed twice by centrifugation with 25 ml of BT buffer at room temperature. Finally, the resin loaded into a column and washed with 20 ml of BT, pH 7.0, containing 5 mM imidazole. Protein was eluted with 20 ml of BT buffer pH 8.0, containing 100 mM imidazole. Fractions (0.5 ml) were collected and analyzed by SDS-Gel electrophoresis. Fractions containing MurD were pooled, cleaved with thrombin (20 units/mg of His-tagged MurD) to remove the histidine tag. Finally the MurD protein was purified on Superdex 75 size exclusion column and eluted in 10 mM tris, pH 7.4, 150 mM NaCl and dialyzed in 100 mM MOPS, pH 7.5, using a Slide-A-Lyzer (Pierce, Rockford, Ill.). […] The protein may be purified further, if desired, using methods known in the art.
The reaction was monitored spectrophotometrically.

Molecule | substrate inhibition of the E. coli MurD (E. coli MurD) | units (S. pyogenes MurD; 0.00137 mg protein) | Specific activity (S. pyogenes MurD)
CC(=O)N[C@H]1C(OP(=O)(O)OP(=O)(O)OC[C@H]2O[C@@H](n3ccc(=O)[nH]c3=O)[C@H](O)[C@@H]2O)O[C@H](CO)[C@@H](O)[C@@H]1O[C@H](C)C(=O)N[C@H](C)C(=O)O (stereo partly drawn) [UDP-N-acetyl-muramyl-L-alanine] | substrate inhibition | – | –
B1 | – | 0.00017 µmol/min | 0.13 µmol/min/mg
